The record followed here is paper PMC7432914, “Corynebacterium glutamicum CrtR and Its Orthologs in Actinobacteria: Conserved Function and Application as Genetically Encoded Biosensor for Detection of Geranylgeranyl Pyrophosphate” (International Journal of Molecular Sciences, 2020).

In series [1] the target is T1, CrtRCc (CrtR from C. callunae) (Corynebacterium callunae, UniProt M1UIJ0).
T1 construct: gene H924_00295; full length, N-terminal His-tag (pET16b) kept, E. coli BL21(DE3), Ni-NTA
T1 sequence (M1UIJ0 1-194): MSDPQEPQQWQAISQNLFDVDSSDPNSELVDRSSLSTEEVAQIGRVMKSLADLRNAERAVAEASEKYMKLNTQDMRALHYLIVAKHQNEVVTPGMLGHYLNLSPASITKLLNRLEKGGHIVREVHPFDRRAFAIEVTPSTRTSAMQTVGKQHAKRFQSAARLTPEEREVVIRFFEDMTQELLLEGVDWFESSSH
As to the kind of experiment: EMSA, inhibition of CrtR binding to own crtR promoter DNA and crtE promoter DNA. Conditions: 100-650 uM GGPP, 15 min preincubation before DNA; pH 7.5, 10 mM MgCl2, room temperature. On the technique in general: Mobility shift assays separate free from complexed probe on a gel.

Series [2] addresses T2, CrtRPn (CrtR from P. nicotinovorans) (Paenarthrobacter nicotinovorans, UniProt A0ABT9TUN6).
T2 construct: gene J2T10_004447; full length, N-terminal His-tag (pET16b) kept, E. coli BL21(DE3), Ni-NTA; gene divergent to idi, not the mmpL-linked paralog
T2 sequence (A0ABT9TUN6 1-195): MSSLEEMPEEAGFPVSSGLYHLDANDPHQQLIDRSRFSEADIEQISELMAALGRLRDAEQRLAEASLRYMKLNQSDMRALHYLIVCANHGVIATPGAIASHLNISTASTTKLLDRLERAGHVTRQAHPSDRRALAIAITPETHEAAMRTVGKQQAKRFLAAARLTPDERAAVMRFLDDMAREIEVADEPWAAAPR
As to the kind of experiment: EMSA, inhibition of CrtR binding to own crtR promoter DNA. The note with it: 100-650 uM GGPP, 15 min preincubation before DNA; pH 7.5, 10 mM MgCl2, room temperature.

Series [3] has as its target T3, CrtR (CrtRCg) (Corynebacterium glutamicum ATCC 13032) (UniProt Q8NSP1).
T3 sequence: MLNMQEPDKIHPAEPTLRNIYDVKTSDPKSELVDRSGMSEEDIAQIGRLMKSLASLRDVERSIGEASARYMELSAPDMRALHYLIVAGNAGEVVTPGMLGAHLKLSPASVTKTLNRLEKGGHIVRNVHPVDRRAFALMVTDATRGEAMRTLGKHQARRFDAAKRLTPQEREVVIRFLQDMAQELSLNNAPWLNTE
The experiment in a line: EMSA. The note with it: 50 mM Tris-HCl pH 7.5, 10% glycerol, 50 mM KCl, 10 mM MgCl2, 0.5 mM EDTA; 20 uL, 30-90 ng DNA, 30 min at room temperature; 78 bp cg2228 upstream fragment ….

Series [4] has as its system T4, CrtR ortholog (CrtRPc) (Pseudarthrobacter chlorophenolicus DSM 12829), ORF:f49de8fb.
T4 sequence: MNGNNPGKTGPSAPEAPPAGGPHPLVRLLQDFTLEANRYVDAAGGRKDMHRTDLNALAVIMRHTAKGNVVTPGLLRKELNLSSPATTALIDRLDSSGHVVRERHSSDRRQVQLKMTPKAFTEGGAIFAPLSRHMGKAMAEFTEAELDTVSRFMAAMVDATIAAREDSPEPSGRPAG
As to the kind of experiment: EMSA. Conditions: 50 mM Tris-HCl pH 7.5, 10% glycerol, 50 mM KCl, 10 mM MgCl2, 0.5 mM EDTA; 20 uL, 30-90 ng DNA, 30 min at room temperature; 78 bp cg2228 upstream fragment ….

A further series has as its target T5, CrtR (CrtRCg) (Corynebacterium glutamicum ATCC 13032, UniProt Q8NSP1 1-195).
T5 sequence: T3 sequence
The experiment in a line: EMSA; strong binding; 50 mM Tris-HCl pH 7.5, 10% glycerol, 50 mM KCl, 10 mM MgCl2, 0.5 mM EDTA; 20 uL, 30-90 ng DNA, 30 min at room temperature; 78 bp cg2228 upstream fragment (negative control) in every sample; GGPP preincubated 15 min. The note with it: protein: recombinant; tags: N-terminal His-tag (pET16b), not removed; chain copies: 2; blunt.

A further series concerns the target T6, CrtR ortholog (CrtRPn) (Paenarthrobacter nicotinovorans DSM 420, UniProt A0ABT9TUN6 1-195).
T6 sequence: T2 sequence (A0ABT9TUN6 1-195)
As to the kind of experiment: EMSA; no GGPP; not all DNA shifted; 50 mM Tris-HCl pH 7.5, 10% glycerol, 50 mM KCl, 10 mM MgCl2, 0.5 mM EDTA; 20 uL, 30-90 ng DNA, 30 min at room temperature; 78 bp cg2228 upstream fragment (negative control) in every sample; GGPP preincubated 15 min. Conditions: protein: recombinant; tags: N-terminal His-tag (pET16b), not removed; chain copies: 2; blunt.

As to `CC(C)=CCC/C(C)=C/CC/C(C)=C/CC/C(C)=C/COP(=O)(O)OP(=O)(O)O` [GGPP], the “EMSA, inhibition of CrtR binding to own crtR promoter DNA and crtE promoter DNA” value in series [1] is “GGPP inhibited the interaction between the tested CrtR proteins and their target DNA”. For the same molecule, the “EMSA, inhibition of CrtR binding to own crtR promoter DNA” value in series [2] was “GGPP inhibited the interaction between the tested CrtR proteins and their target DNA”. As for “TGCCTTCCATGCGGATGGTCCACGCGGGACAAAGCGGAGTAGGATTGGTTCCACATTAGACTATCTCCATGATAGAGATAAGTGCCAGTCAAGCTTTTTCAACGGGGGCCTCCGCCGGGGGCTTCCACGGCTGAGCCAGGTAATGCCAAGGCAGCTGAAGTAATATCCCTCAGGGCCTGTGCGCAAAGACGGACGGCCCCACGAACTCCAGGAGGTGACCATGAACGGCAACAATCCGGGCA (double strand) [P. chlorophenolicus crtR-mmpl intergenic region (PcrtR)]”, the binding result in series [3] is on record as “binds more weakly”; in series [4] it was “binds”.

B1: P. nicotinovorans crtR-idi intergenic region (dsDNA)
DNA 1: CATACTGCGCCTTCCTCCTGCAACCTGAGTCTTTACAGCAGCCCGAATATTGCTAGACAAGCTAGAAGAAAGGCTACCATGTAGGAAGTTAGGTGTAACATACTCAGCATG
DNA 2: CATGCTGAGTATGTTACACCTAACTTCCTACATGGTAGCCTTTCTTCTAGCTTGTCTAGCAATATTCGGGCTGCTGTAAAGACTCAGGTTGCAGGAGGAAGGCGCAGTATG
Take B1: the binding result with CrtR (CrtRCg) and with CrtR ortholog (CrtRPn) was “binds” throughout.

B2: C. callunae crtR-mmpl intergenic region (dsDNA)
DNA 1: CGCAAGATGCCGGGAAATACGCTCTGAAGAGGGGTTTTCATGGCCTTAAACCTTTATATATGCAAATTGTTAAATTATCCAACAGTGTAAGGTATCCCATTTTCTTAAAAAAAGGGTTAATATCCATCTATGTCCGATCCGCAA
DNA 2: TTGCGGATCGGACATAGATGGATATTAACCCTTTTTTTAAGAAAATGGGATACCTTACACTGTTGGATAATTTAACAATTTGCATATATAAAGGTTTAAGGCCATGAAAACCCCTCTTCAGAGCGTATTTCCCGGCATCTTGCG
Take B2: in the series with CrtR (CrtRCg), the binding result is “binds”.
